Experimental data reported in patent US20080050387A1, “Non-Androgen Dependent Roles for Androgen Receptor and Non-Androgen Related Inhibitors of Androgen Receptor” (priority 2003, published 2008).

Columns and labels:
[1] = test system: AR; assay: AR transactivation luciferase assay in COS-1 cells with GSK3β; assay type: cell-based, human
Method: (§1) COS-1 and PC-3 cells were maintained in early to mid-log phase in DMEM medium, supplemented with 10% fetal bovine serum (FBS), 50 units/ml penicillin and 50 μg/ml streptormnycin in incubators with humidified air and 5% carbon dioxide at 37° C. LNCaP cells were maintained in RPMI (GIBCO/BRL) medium. Twenty-four h prior to transfection, cells washed with Hanks' buffered saline solution, trypsinized, and seeded to be a density of 40-60% confluence for transfection. Cells in 12 well plates were refed with fresh medium 2 hours before transfection and transfected according to the “SuperFect Transfection” instructions (QIAGEN). After 2-3 h incubation, cells were treated with medium supplemented with charcoal-dextran treated FBS containing either ethanol or ligands. Cells were further incubated at 37° C. for 24 h, washed with PBS, and harvested.
Target sequence in this assay (P10275 with tags, fused parts or gaps DEL79-80/DUP473-473): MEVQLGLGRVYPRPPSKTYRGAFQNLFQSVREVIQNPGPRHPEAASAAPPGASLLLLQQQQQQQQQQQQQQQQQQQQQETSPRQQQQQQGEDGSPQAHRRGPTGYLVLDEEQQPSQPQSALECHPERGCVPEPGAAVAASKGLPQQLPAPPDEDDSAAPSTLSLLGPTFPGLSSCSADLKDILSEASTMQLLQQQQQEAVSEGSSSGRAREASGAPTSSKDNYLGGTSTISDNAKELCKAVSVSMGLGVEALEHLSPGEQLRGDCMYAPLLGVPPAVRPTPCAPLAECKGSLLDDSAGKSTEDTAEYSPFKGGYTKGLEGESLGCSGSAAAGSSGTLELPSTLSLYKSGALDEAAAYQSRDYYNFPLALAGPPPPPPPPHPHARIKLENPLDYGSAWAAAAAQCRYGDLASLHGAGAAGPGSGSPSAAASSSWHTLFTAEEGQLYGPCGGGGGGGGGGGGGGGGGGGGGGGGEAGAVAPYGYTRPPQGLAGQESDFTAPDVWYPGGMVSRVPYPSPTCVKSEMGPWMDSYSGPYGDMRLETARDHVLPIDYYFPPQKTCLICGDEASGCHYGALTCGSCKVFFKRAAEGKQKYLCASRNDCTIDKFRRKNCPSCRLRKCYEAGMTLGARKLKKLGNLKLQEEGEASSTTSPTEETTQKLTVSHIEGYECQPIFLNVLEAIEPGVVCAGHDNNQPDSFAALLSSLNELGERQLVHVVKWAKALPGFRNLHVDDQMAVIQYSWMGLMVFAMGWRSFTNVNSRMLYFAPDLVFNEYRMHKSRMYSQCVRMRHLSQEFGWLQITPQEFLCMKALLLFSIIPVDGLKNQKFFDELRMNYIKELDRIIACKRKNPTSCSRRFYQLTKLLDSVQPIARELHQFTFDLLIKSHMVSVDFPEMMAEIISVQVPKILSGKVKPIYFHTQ

[2] = molecular target: T1, human glucocorticoid receptor (hGR) (Homo sapiens, UniProt P04150); assay: hGR transactivation luciferase assay in COS-1 cells with GSK3β; assay type: cell-based
T1 construct: expressed in transfected cells; host or cells: COS-1
T1 sequence (P04150 1-777): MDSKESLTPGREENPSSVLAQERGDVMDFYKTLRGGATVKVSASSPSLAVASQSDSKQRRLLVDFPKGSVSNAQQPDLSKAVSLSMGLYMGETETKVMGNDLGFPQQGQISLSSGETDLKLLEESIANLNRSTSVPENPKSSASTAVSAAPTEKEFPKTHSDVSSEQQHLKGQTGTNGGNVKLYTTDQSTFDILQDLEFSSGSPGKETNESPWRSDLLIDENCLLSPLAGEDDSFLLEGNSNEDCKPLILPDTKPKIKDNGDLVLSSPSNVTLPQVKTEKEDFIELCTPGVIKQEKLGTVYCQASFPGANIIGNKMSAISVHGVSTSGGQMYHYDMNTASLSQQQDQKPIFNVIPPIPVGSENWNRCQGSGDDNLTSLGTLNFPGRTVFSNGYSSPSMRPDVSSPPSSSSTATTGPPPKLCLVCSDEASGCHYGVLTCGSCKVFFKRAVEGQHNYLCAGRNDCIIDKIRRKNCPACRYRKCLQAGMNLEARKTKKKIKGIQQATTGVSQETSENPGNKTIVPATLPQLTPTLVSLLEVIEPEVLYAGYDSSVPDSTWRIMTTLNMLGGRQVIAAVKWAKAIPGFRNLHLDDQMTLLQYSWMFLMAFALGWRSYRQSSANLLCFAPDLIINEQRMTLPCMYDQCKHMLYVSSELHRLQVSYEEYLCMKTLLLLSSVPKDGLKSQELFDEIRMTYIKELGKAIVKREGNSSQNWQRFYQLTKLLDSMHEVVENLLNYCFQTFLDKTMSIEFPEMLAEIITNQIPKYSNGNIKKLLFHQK
Method: as §1

[3] = test system: AR; assay: AR transactivation luciferase assay in LNCaP cells with GSK3β; assay type: cell-based, human; conditions: MMTV-Luc, DHT
Method: as §1
Target sequence in this assay (P10275 whole entry T878A, the tested form may be a part): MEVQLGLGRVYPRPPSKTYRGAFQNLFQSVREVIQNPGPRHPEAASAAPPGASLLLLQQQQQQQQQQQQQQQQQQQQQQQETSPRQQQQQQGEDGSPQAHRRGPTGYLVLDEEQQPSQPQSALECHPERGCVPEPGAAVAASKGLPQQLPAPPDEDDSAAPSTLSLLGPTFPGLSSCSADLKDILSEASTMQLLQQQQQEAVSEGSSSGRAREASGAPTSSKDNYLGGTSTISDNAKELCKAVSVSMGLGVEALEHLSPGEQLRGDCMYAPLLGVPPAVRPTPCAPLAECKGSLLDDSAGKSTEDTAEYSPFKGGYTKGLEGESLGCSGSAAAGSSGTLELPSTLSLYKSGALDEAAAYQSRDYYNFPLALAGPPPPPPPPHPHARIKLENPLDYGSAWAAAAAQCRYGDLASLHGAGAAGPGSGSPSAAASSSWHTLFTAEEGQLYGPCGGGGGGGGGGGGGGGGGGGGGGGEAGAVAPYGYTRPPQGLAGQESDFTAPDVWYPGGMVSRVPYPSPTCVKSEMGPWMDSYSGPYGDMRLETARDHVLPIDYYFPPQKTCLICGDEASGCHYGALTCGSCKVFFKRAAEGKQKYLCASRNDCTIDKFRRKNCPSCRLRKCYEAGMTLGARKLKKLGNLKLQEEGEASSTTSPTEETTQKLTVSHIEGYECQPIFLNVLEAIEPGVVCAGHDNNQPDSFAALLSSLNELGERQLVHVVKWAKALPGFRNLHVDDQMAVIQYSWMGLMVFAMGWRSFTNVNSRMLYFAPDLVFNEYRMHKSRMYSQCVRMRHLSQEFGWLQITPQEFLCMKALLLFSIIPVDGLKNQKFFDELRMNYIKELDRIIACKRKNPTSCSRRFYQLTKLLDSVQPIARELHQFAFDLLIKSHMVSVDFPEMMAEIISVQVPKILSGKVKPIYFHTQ

[4] = test system: PSA expression in LNCaP cells; assay: PSA promoter activity and PSA mRNA (Northern blot) in LNCaP cells with GSK3β; assay type: cell-based, human
Method: as §1

[5] = test system: AR; assay: In vitro kinase assay of GSK3β on AR fragments; assay type: biochemical, human; conditions: 30 min at 30° C.
[6] = test system: AR AF-1 / AF-2; assay: GAL4-ARN / GAL4-AR-LBD pG5-Luc reporter assay in COS-1 cells; assay type: cell-based, human
Method: as §1

[7] = test system: AR; assay: AR expression by immunoblot in LNCaP cells transfected with GSK3β; assay type: cell-based, human; conditions: pCMV-GSK3β vs pCMV vector
Target sequence in this assay (P10275 whole entry T878A, the tested form may be a part): as above

[8] = test system: AR; assay: GST pull-down assay GSK3β / AR; assay type: binding, human; conditions: presence or absence of DHT
Method: 5 μl of in vitro-translated β5S]-labeled AR was incubated with the GST or GST-GSK3β bound to glutathione-Sepharose beads in a pull-down assay. After extensive washing, bead-bound protein complexes were loaded onto 8% SDS-PAGE and analyzed by Phosphorlmager. The input represents 20% amount of [^35S]-labeled proteins used in each pull-down assay. […] COS-1 cells were solubilized in RIPA buffer containing 0.5% NP-40 and protease inhibitors. Immunoprecipitation was performed using mouse HA antibody (1:1000) or normal mouse IgG (N-IgG) and then analyzed by Western blot with anti-AR NH27 (1:1000) or anti-GSK3β (1:1000) antibodies, followed by incubation with AP conjugate goat anti-rabbit or rabbit anti-mouse IgM antibodies, and visualized with AP conjugate kit (Bio-Rad).
Target sequence in this assay (P10275 with tags, fused parts or gaps DEL79-80/DUP473-473): as the sequence (P10275 with tags, fused parts or gaps DEL79-80/DUP473-473) above
Target sequence in this assay (P49841 whole entry partner, the tested form may be a part): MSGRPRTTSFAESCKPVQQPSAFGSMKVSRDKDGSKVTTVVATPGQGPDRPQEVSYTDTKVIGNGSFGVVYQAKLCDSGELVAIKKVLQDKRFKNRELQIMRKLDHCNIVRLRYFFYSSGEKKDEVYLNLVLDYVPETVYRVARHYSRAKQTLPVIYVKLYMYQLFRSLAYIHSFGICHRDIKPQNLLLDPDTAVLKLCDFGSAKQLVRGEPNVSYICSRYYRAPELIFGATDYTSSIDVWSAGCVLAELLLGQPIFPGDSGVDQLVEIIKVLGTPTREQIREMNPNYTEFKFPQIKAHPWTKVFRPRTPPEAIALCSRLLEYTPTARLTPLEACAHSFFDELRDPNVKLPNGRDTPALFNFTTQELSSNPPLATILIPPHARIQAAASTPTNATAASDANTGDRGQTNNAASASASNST

B1: GSK3β: glycogen synthase kinase 3β, serine/threonine protein kinase (SEQ ID NO:5), wild type (protein)
chain: MSGRPRTTSFAESCKPVQQPSAFGSMKVSRDKDGSKVTTVVATPGQGPDRPQEVSYTDTKVIGNGSFGVVYQAKLCDSGELVAIKKVLQDKRFKNRELQIMRKLDHCNIVRLRYFFYSSGEKKDEVYLNLVLDYVPETVYRVARHYSRAKQTLPVIYVKLYMYQLFRSLAYIHSFGICHRDIKPQNLLLDPDTAVLKLCDFGSAKQLVRGEPNVSYICSRYYRAPELIFGATDYTSSIDVWSAGCVLAELLLGQPIFPGDSGVDQLVEIIKVLGTPTREQIREMNPNYTEFKFPQIKAHPWTKDSSGTGHFTSGVRVFRPRTPPEAIALCSRLLEYTPTARLTPLEACAHSFFDELRDPNVKLPNGRDTPALFNFTTQELSSNPPLATILIPPHARIQAAASTPTNATAASDANTGDRGQTNNAASASASNST
AR-mediated transcription of the luciferase reporter reduced by ([1]; ARE4-Luc, 10 nM DHT): about 40% | DHT-mediated AR transactivation / AR transcriptional activity ([1]; MMTV-Luc): inhibits | hGR transactivation [2]: failed to inhibit | activity of AR [3]: reduced | expression of PSA mRNA ([4]; Northern blot, 10 nM DHT): reduced | DHT-mediated induction of transcription from the PSA promoter ([4]; PSA-luc): repressed | phosphorylation of GST-AR38-560 (N-terminus) [5]: significantly phosphorylated | phosphorylation of GST-AR-DBD-LBD or 6His-AR-LBD [5]: slightly phosphorylated | activity of GAL4-AR-LBD [6]: did not influence | constitutive transcriptional activity of GAL4-ARN [6]: inhibited | endogenous expression of AR [7]: little change | binding of 35S-methionine-labeled AR to GST-GSK3β [8]: bind specifically
